The target of assay [1] is T1, interaction of SARS-CoV-2 S1 and hACE2 in hACE2-overexpressed HEK293 cells (Severe acute respiratory syndrome coronavirus 2, UniProt P0DTC2).
T1 construct: S1 protein-His Tag (AcroBiosystems, S1N-C52H3-100UG, USA); AcroBiosystems (S1 protein) 145033; S1N-C52H3-100UG; host or cells: HEK293
It is filed as cell-based, human.

In the next assay the target is T2, S1 subunit of SARS-CoV-2 (Severe acute respiratory syndrome coronavirus 2, UniProt P0DTC2).
T2 construct: ACE2 and S1 subunits of SARS-CoV-2; His Tag; purchased AcroBiosystems S1N-C52H3-100UG
It is filed as binding.

Where a SMILES comes first, the peptide text is derived from it. Bridges are numbered along the chain shown (N, C = ends). Where no end group is shown, it is not given here.

As for `CC[C@H](C)[C@H](NC(=O)[C@H](CCCNC(=N)N)NC(=O)[C@@H]1CSSC[C@H](NC(=O)CNC(=O)CNC(=O)[C@@H]2CCCN2C(=O)[C@H](CO)NC(=O)[C@H](C)NC(=O)[C@H](CC(C)C)NC(=O)[C@H](CO)NC(=O)[C@H](CO)NC(=O)[C@H](CCCCN)NC(=O)[C@H](Cc2ccc(O)cc2)NC(=O)[C@H](Cc2ccccc2)NC(=O)[C@H](CC(C)C)NC(=O)[C@H](CC(=O)O)NC(=O)[C@H](CCC(=O)O)NC(=O)[C@@H]2CCCCNC(=O)C[C@H](NC(=O)[C@H](CCCCN)NC(=O)[C@H](CC(=O)O)NC(=O)[C@H](CC(C)C)NC(=O)[C@H](Cc3ccccc3)NC(=O)[C@H](CC(N)=O)NC(=O)[C@H](C)NC(=O)[C@H](C)NC(=O)[C@H](CCC(N)=O)NC(=O)[C@@H](N)CC(C)C)C(=O)N[C@@H](CC(N)=O)C(=O)N[C@@H](CC(=O)O)C(=O)N[C@@H](CCC(=O)O)C(=O)N2)C(=O)N[C@@H](CC(C)C)C(=O)NCC(=O)N[C@@H](CCCCN)C(=O)NCC(=O)N[C@@H](CC(=O)O)C(=O)N1)C(=O)N[C@@H](CC(C)C)C(=O)O` [CSNP2] (H-LQAANFLDKDNDEKEDLFYKSSLASPGGCLGKGDCRIL-OH; lactam 10-14; disulfide 29-35; N-terminus and C-terminus assumed), the “effect on membrane localization of S1” value in assay [1] is “completely blocked the membrane localization of S1”.
For the compound “CSNP3 (ENAINFLDKDNHEKEDLFYQ; not fully specified)”, the “effect on S1-ACE2 interaction” value in assay [1] is on record as “completely eliminated the S1-ACE2 interaction”. Besides, in the assay with S1 subunit of SARS-CoV-2, the “dependent binding to S1” value is “no dependent binding”.

For the origin of these results see patent US20240059741A1, “COMPOSITION FOR PREVENTION OR TREATMENT OF SARS-COV-2 INFECTION” (priority 2020, published 2024).
